± gives the uncertainty stated by the source.
Test: self-splicing fitness, log relative to wild type (ln ratio); higher = more splicing; Tetrahymena group I intron in knt gene, E. coli kanamycin selection, DiMSum; sequences stand for … in CUCUCU…GGAGGGAAAAGUUAUCAGGCAUGCACCUGGUAGCUAGUCUUUAAACCAAUAGAUUGCAUCGGUUUAAAAGGCAAGACCGUCAAAUUGCGGGAAAGGGGUCAACAGCCGUUCAGUACCAAGUCUCAGGGGAAACUUUGAGAUGGCCUUGCAAAGGGUAUGGUAAUAAGCUGACGGACAUGGUCCUAACCACGCAGCCAAGUCCUAAGUCAACAGAUCUUCUGUUGAUAUGGAUGCAGUUCACAGACUAAAUGUCGGUCGGGGAAGAUGUAUUCUUCUCAUAAGAUAUAGUCGGACCUCUCCUUAAUGGGAGCUAGCGGAUGAAGUGAUGCAACACUGGAGCCGCUGGGAACUAAUUUGUAUGCGAAAGUAUAUUGAUUAGUUUUGGAGUACUCGUGGUCG
How it was run: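 DiMSum derived fitness as the error-weighted combination of fold changes across replicates, kanamycin versus no kanamycin, normalised to wild type. E. coli BL21(DE3) held the library, which randomised all eight P1ex-region intron nucleotides within the knt kanamycin-resistance gene on pET-22b(+). Six replicate transformations grew overnight at 37°C or 30°C on LB agar with or without 25 μg/mL kanamycin, also containing 100 μg/mL carbenicillin, 50 μM IPTG and 0.2% rhamnose, and pooled colonies were amplicon-sequenced on an Illumina HiSeq 2500.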

Sequence	self-splicing fitness (ln) (30 °C)	self-splicing fitness (ln) (37 °C)
GUUUAGCAAUAUUACGGUGU	-1.95 ± 0.14	-1.38 ± 0.13
GGGUAGCAAUAUUACGACGA	-0.202 ± 0.15	-0.379 ± 0.14
ACCCAGCAAUAUUACGUCUG	-3.16 ± 0.12	-2.79 ± 0.14
UAAGAGCAAUAUUACGGCAC	–	-1.16 ± 0.48
AGCUAGCAAUAUUACGUCAG	-3.09 ± 0.18	-2.84 ± 0.22
AAGCAGCAAUAUUACGCCAU	-2.13 ± 0.19	-1.69 ± 0.28
AAAGAGCAAUAUUACGUCGU	-3.75 ± 0.26	-2.62 ± 0.17
GAGAAGCAAUAUUACGCAUA	-1.72 ± 0.13	-1.01 ± 0.14
CUUGAGCAAUAUUACGACCA	-1.41 ± 0.32	–
UUCAAGCAAUAUUACGGUCU	-2.89 ± 0.16	-1.97 ± 0.16
CCUGAGCAAUAUUACGCGGC	-3.57 ± 0.2	-2.55 ± 0.22
AACUAGCAAUAUUACGAGUU	-3.44 ± 0.24	-1.89 ± 0.22
CAAUAGCAAUAUUACGCUAC	-3.14 ± 0.22	-2.08 ± 0.26
ACAUAGCAAUAUUACGCGCC	-0.408 ± 0.16	0.199 ± 0.26
UUAGAGCAAUAUUACGUUCG	-1.22 ± 0.1	-0.767 ± 0.15
CUGGAGCAAUAUUACGGCGC	–	-1.02 ± 0.41
UCGCAGCAAUAUUACGUGAU	-2.2 ± 0.25	-3.26 ± 0.35
AAGCAGCAAUAUUACGCACU	0.0285 ± 0.094	0.781 ± 0.12
UGCGAGCAAUAUUACGGACC	-2.33 ± 0.19	–
AGGUAGCAAUAUUACGCUGU	-3.789 ± 0.033	-2.97 ± 0.043
GGGUAGCAAUAUUACGGUCC	-1.34 ± 0.25	–
GGAUAGCAAUAUUACGAAAU	-1.09 ± 0.12	-0.476 ± 0.12
CGUGAGCAAUAUUACGAUAG	-1.13 ± 0.1	-0.217 ± 0.15
CGAGAGCAAUAUUACGAAUC	-2.29 ± 0.27	–
CACGAGCAAUAUUACGCAGG	-3.49 ± 0.21	-2.55 ± 0.2

Sequence	self-splicing fitness (ln) (30 °C)	self-splicing fitness (ln) (37 °C)
GACGAGCAAUAUUACGCCUC	-3.23 ± 0.37	-1.86 ± 0.38
CUAUAGCAAUAUUACGGGGC	–	-1.7 ± 0.33
GUUAAGCAAUAUUACGUGAA	-1.75 ± 0.11	-1.47 ± 0.16
ACCCAGCAAUAUUACGGACC	-0.974 ± 0.073	-0.347 ± 0.089
CUGAAGCAAUAUUACGCGAC	-1.46 ± 0.086	-1.14 ± 0.1
CGUCAGCAAUAUUACGGUAU	-2.04 ± 0.11	-2.59 ± 0.16
UAGUAGCAAUAUUACGGGUA	-1.99 ± 0.12	-0.398 ± 0.097
AUGAAGCAAUAUUACGUCAU	-2.43 ± 0.093	-1.19 ± 0.083
AAGGAGCAAUAUUACGGAUA	-3.9 ± 0.35	-1.99 ± 0.29
GGAUAGCAAUAUUACGCUCG	-0.451 ± 0.24	-0.208 ± 0.35
UGAAAGCAAUAUUACGCACU	-0.504 ± 0.094	0.371 ± 0.11
CUUCAGCAAUAUUACGCUUA	-3.34 ± 0.2	-2.4 ± 0.17
CAAAAGCAAUAUUACGCUGA	-3.25 ± 0.2	-1.81 ± 0.15
GGAGAGCAAUAUUACGUGCA	-1.92 ± 0.29	-2.03 ± 0.32
CAGCAGCAAUAUUACGGCAA	-1.35 ± 0.1	-1.45 ± 0.097
ACCUAGCAAUAUUACGUAGU	-2.07 ± 0.09	-0.568 ± 0.081
UCGUAGCAAUAUUACGGCGG	-2.41 ± 0.14	-0.883 ± 0.15
AACGAGCAAUAUUACGGUCU	-2.03 ± 0.093	-0.898 ± 0.1
UAGUAGCAAUAUUACGCAUC	-2.64 ± 0.28	–
UUUUAGCAAUAUUACGUUAA	-2.45 ± 0.37	-2.52 ± 0.48
UAUUAGCAAUAUUACGUGUU	-3.04 ± 0.29	-2.86 ± 0.32
UUAAAGCAAUAUUACGCGCC	-0.43 ± 0.15	-0.00103 ± 0.24
UGAGAGCAAUAUUACGGAGU	-2.89 ± 0.29	–
CUAAAGCAAUAUUACGGAUC	-2.3 ± 0.21	–
GCCUAGCAAUAUUACGACAG	-3.52 ± 0.29	-2.82 ± 0.28

Sequence	self-splicing fitness (ln) (30 °C)	self-splicing fitness (ln) (37 °C)
UCCGAGCAAUAUUACGCAGU	-2.79 ± 0.33	-2.31 ± 0.28
GGGGAGCAAUAUUACGACGG	-3.76 ± 0.46	–
UAACAGCAAUAUUACGGUUA	-1.59 ± 0.1	-0.652 ± 0.096
CUGUAGCAAUAUUACGUUAU	-3.21 ± 0.22	-2.83 ± 0.23
AAUAAGCAAUAUUACGGAAA	-1.5 ± 0.33	-2.03 ± 0.39
UGUGAGCAAUAUUACGUAAC	-3.16 ± 0.28	-2.25 ± 0.38
UGAUAGCAAUAUUACGUACC	-1.76 ± 0.2	-1.6 ± 0.26
ACGAAGCAAUAUUACGAUGA	-1.88 ± 0.18	-1.29 ± 0.17
GCCUAGCAAUAUUACGAUUA	-3.39 ± 0.29	-1.63 ± 0.18
GCACAGCAAUAUUACGAGGG	-1.9 ± 0.091	-1.14 ± 0.14
AGCCAGCAAUAUUACGGAGU	-2.69 ± 0.19	-1.66 ± 0.14
GUGUAGCAAUAUUACGGGGG	-3.23 ± 0.41	-2.07 ± 0.43
CUAAAGCAAUAUUACGCGGC	-1.21 ± 0.13	-1.28 ± 0.17
CGGGAGCAAUAUUACGCCGU	-3.46 ± 0.47	–
CAGUAGCAAUAUUACGAAAU	-2.86 ± 0.15	-2.54 ± 0.21
CACCAGCAAUAUUACGGAAG	-0.975 ± 0.049	-0.0423 ± 0.072
GGUUAGCAAUAUUACGAGGA	-3.3 ± 0.29	-1.96 ± 0.24
UCCGAGCAAUAUUACGAGCU	–	-2.68 ± 0.48
ACCGAGCAAUAUUACGUGGC	-4.18 ± 0.2	-2.21 ± 0.18
GGGCAGCAAUAUUACGUCAG	-1.19 ± 0.087	-0.138 ± 0.11
CGGUAGCAAUAUUACGUGUA	-3.31 ± 0.2	-2.97 ± 0.28
UAGGAGCAAUAUUACGGGGU	-3.84 ± 0.4	-2.12 ± 0.35
AAGAAGCAAUAUUACGGACG	-0.677 ± 0.071	0.0583 ± 0.11
CGGUAGCAAUAUUACGCCUA	-0.535 ± 0.14	-0.215 ± 0.11
CGUAAGCAAUAUUACGGGAA	-3.04 ± 0.41	-1.9 ± 0.44

Sequence	self-splicing fitness (ln) (30 °C)	self-splicing fitness (ln) (37 °C)
UCCGAGCAAUAUUACGACAU	-3.93 ± 0.031	-2.98 ± 0.043
GCCAAGCAAUAUUACGGCGA	-1.18 ± 0.093	-0.756 ± 0.095
GCAUAGCAAUAUUACGUGUU	-3.84 ± 0.14	-2.36 ± 0.088
GUCCAGCAAUAUUACGUCCC	-0.702 ± 0.12	0.424 ± 0.12
UCGGAGCAAUAUUACGAUAG	-3.29 ± 0.32	-2.83 ± 0.35
AAUAAGCAAUAUUACGGUAA	-1.73 ± 0.16	-1.03 ± 0.11
ACGCAGCAAUAUUACGUUGC	-2.7 ± 0.1	-2.75 ± 0.16
CUUCAGCAAUAUUACGUACG	-0.327 ± 0.062	0.542 ± 0.088
GCUGAGCAAUAUUACGCUAA	-3.04 ± 0.32	–
ACAUAGCAAUAUUACGACGG	-1 ± 0.091	-0.32 ± 0.12
UGUUAGCAAUAUUACGCGAA	-0.983 ± 0.12	-0.191 ± 0.1
UAUCAGCAAUAUUACGAUCU	-0.554 ± 0.1	-0.0299 ± 0.098
GUUGAGCAAUAUUACGGAUA	-0.148 ± 0.24	-1.65 ± 0.45
GGGCAGCAAUAUUACGUAGC	-1.79 ± 0.22	-0.913 ± 0.28
GGUUAGCAAUAUUACGGGCG	0.777 ± 0.094	0.208 ± 0.1
CAUGAGCAAUAUUACGGAAA	-3.26 ± 0.29	-2.17 ± 0.24
ACACAGCAAUAUUACGGUGC	-3.91 ± 0.16	-2.61 ± 0.14
AGGCAGCAAUAUUACGAGCU	-0.501 ± 0.1	-0.299 ± 0.13
GUUGAGCAAUAUUACGAUGU	-2.43 ± 0.21	-1.03 ± 0.18
UGUGAGCAAUAUUACGUAUA	-3.5 ± 0.4	-2.03 ± 0.21
CGACAGCAAUAUUACGCACU	-1.22 ± 0.09	0.0742 ± 0.12
CAGUAGCAAUAUUACGUUGG	-1.56 ± 0.075	-0.932 ± 0.1
UUUCAGCAAUAUUACGAUGA	-0.807 ± 0.081	-0.285 ± 0.075
GCCAAGCAAUAUUACGUGUA	-1.41 ± 0.068	-0.64 ± 0.062

Reference: the supplement of paper PMC7877785
